Measured values taken from PMC11880434 (Nature Communications, 2025).

What was measured:
MbpR = target: T1, MbpR (Lactiplantibacillus plantarum, UniProt F9USQ8); test: ITC; type: binding
T1 sequence (F9USQ8 1-306): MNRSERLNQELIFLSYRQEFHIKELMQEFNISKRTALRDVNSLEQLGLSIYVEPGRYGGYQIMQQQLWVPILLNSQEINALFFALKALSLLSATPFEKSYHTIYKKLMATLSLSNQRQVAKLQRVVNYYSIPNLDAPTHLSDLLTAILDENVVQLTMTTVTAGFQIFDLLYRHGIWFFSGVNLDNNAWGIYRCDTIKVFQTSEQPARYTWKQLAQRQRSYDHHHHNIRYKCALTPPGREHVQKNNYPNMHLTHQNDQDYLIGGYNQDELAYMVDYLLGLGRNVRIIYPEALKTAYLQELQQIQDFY

[1] = target: mucin binding domain of MbpA (L. plantarum WCFS1); test: MST
[2] = target: mucin binding domain of MbpB (L. plantarum WCFS1); test: MST

| Kd (MbpR) [µM] | Kd [1] [µM] | Kd [2] [µM] | Compound |
| --- | --- | --- | --- |
| 0.22 | – | – | Nc1nc2c(ncn2[C@@H]2O[C@@H]3CO[P@](=O)(O)O[C@H]4[C@@H](O)[C@H](n5cnc6c(=O)[nH]c(N)nc65)O[C@@H]4CO[P@](=O)(O)O[C@H]3[C@H]2O)c(=O)[nH]1 [c-di-GMP] |
| – | 0.53 | 0.69 | mucin (natural protein) |
